# Test results as given in patent US7704695B2, “Screening of compounds for BGT1 transporter activity” (XenoPort, Inc., priority 2005, dated 2010).
# B1: hBGT1 (Homo sapiens) (protein)
# chain: MDGKVAVQECGPPAVSWVPEEGEKLDQEDEDQVKDRGQWTNKMEFVLSVAGEIIGLGNVWRFPYLCYKNGGGAFFIPYFIFFFVCGIPVFFLEVALGQYTSQGSVTAWRKICPLFQGIGLASVVIESYLNVYYIIILAWALFYLFSSFTSELPWTTCNNFWNTEHCTDFLNHSGAGTVTPFENFTSPVMEFWERRVLGITSGIHDLGSLRWELALCLLLAWVICYFCIWKGVKSTGKVVYFTATFPYLMLVILLIRGVTLPGAYQGIIYYLKPDLFRLKDPQVWMDAGTQIFFSFAICQGCLTALGSYNKYHNNCYKDCIALCFLNSATSFVAGFVVFSILGFMSQEQGVPISEVAESGPGLAFIAFPKAVTMMPLSQLWSCLFFIMLIFLGLDSQFVCVECLVTASIDMFPRQLRKSGRRELLILTIAVMCYLIGLFLVTEGGMYIFQLFDYYASSGICLLFLSLFEVVCISWVYGADRFYDNIEDMIGYRPWPLVKISWLFLTPGLCLATFLFSLSKYTPLKYNNVYVYPPWGYSIGWFLALSSMVCVPLFVVITLLKTRGPFRKRLRQLITPDSSLPQPKQHPCLDGSAGRNFGPSPTREGLIAGEKETHL
# notes: expressed in transfected cells; host or cells: HEK-TREx cells (HEK-TREx-BGT1 inducible line), induced with tetracycline/doxycycline and butyrate
# Substrate: NCCCC(=O)O
# Experiment: hBGT1 direct uptake assay (LC-MS-MS)
# Format: cell-based, human
# Conditions: other: HEK-TREx-hBGT1 cells induced to express hBGT1
# Experimental: A modified direct uptake assay was developed to determine the ability of test compounds to be transported into HEK-TREx cells induced to over-express hBGT1. Four concentrations (bracketing the affinity as measured by competition assays) per compound were routinely tested. Non-specific uptake was determined by measuring the uptake into cells not induced to express the transporter (“no tet”).
# Typically, four concentrations bracketing the IC50 were tested. The highest test concentration for each compound was made in an Eppendorf tube and diluted into HBSS. The samples were robustly vortexed and centrifuged for 10 minutes at 13,200 rpm to spin down any precipitate. […] Three additional 2-fold dilutions were made in the subsequent rows (B-D or F-G) in HBSS.
# An internal standard of 50 μM propranolol in 50:50 ethanol:water was also prepared. To prepare standard curves, several concentrations of the test compounds were diluted into HEK cell extract (prepared from tet-treated, mock-incubated, and extracted cells as described below) with a final internal standard concentration of 5 μM. Standards of 10, 5, 1, 0.5, 0.1, 0.05, 0.01, and 0.005 μM were routinely run for each test compound. […]
protein,measurement,value
B1,Km,27 µM
